Measured values: patent US20220306751A1 (MYTHIC THERAPEUTICS, published 2022)
Numbering of substitutions follows the chain as printed. Each block holds one binder with its values, some of them ahead of it.

Key:
[1] = molecular target: T1, CD123 Protein, His Tag, Acro Biosciences Cat. No. ILA-H52H6 (Homo sapiens (Human), UniProt P26951 19-305); test: BLI, IgG on anti-human Fc sensor, pH 7.4 and pH 5.4
T1 construct: Bought protein; not shown: His tag
T1 sequence: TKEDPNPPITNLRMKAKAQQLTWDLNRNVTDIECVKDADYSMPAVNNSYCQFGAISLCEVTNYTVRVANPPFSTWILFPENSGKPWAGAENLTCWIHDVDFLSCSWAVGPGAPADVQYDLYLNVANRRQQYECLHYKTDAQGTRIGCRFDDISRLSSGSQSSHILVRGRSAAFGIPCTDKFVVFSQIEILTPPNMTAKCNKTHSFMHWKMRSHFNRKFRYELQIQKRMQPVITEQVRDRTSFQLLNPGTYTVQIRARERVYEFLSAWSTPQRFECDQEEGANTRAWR

[2] = molecular target: T1, CD123 Protein, His Tag, Acro …; test: BLI, IgG on anti-human Fc sensor, 50 nM CD123, pH 7.4 and pH 5.4
In short: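 Single His/Ala heavy-chain CDR variants were expressed in Expi293 and captured from diluted supernatant on anti-human Fc sensors. By BLI, association with 50 nM His-tagged CD123 ran for 120 s and dissociation for 300–600 s, all in PBST pH 7.4. The full cycle was repeated separately in PBST pH 5.4.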

B4: MYT2797 (antibody, V domains shown)
VH: QVQLVQSGAEVKKPGASVKVSCKASGYIFTSSIMHWVRQAPGQGLEWIGYIKPYNDGTKYNEKFKGRATLTSDRSTSTAYMELSSLRSEDTAVYYCAREGGNDYYDTMDYWGQGTLVTVSS
VL: DIQMTQSPSSLSASVGDRVTITCRASQDINSYLSWFQQKPGKAPKTLIYRVNRLVDGVPSRFSGSGSGNDYTLTISSLQPEDFATYYCLQYDAFHYTFGQGTKVEIK
notes: IgG
binding result [2]: binds

B5: MYT2795 (antibody, V domains shown)
VH: B4 VH
VL: B4 VL with A93H, H95P
notes: IgG
binding result [2]: binds

B6: MYT2796 (antibody, V domains shown)
VH: B4 VH
VL: B4 VL with F94H, H95P
notes: IgG
binding result [2]: binds

B7: MYT1414 (antibody, V domains shown)
VH: QVQLVQSGAEVKKPGASVKMSCKASHYTFTDYYMKWVKQAPGQGLEWIGDIIPSNGATFYNQKFKGKATLTVDRSISTAYMHLNRLRSDDTAVYYCTRSHLLRASWFAYWGQGTLVTVSS
VL: DFVMTQSPDSLAVSLGERATINCKSSQSLLNSGNQKNYLTWYLQKPGQPPKLLIYWASTRESGVPDRFSGSGSGTDFTLTISSLQAEDVAVYYCQNDYSYPYTFGQGTKLEIK
notes: IgG
binding result [2]: binds

B8: MYT1428 (antibody, V domains shown)
VH: B7 VH with H26G, S54H
VL: B7 VL
notes: IgG
binding result [2]: binds

B15: MYT1452 (antibody, V domains shown)
VH: B7 VH with H26G, A108H
VL: B7 VL
notes: IgG
binding result [2]: binds

B16: MYT1415 (antibody, V domains shown)
VH: B7 VH with H26G, Y27H
VL: B7 VL
notes: IgG
binding result [2]: binds

B19: MYT1445 (antibody, V domains shown)
VH: B7 VH with H26G, L101H
VL: B7 VL
notes: IgG
binding result [2]: binds

B20: MYT1439 (antibody, V domains shown)
VH: B7 VH with H26G, K65H
VL: B7 VL
notes: IgG
binding result [2]: binds

B21: MYT1418 (antibody, V domains shown)
VH: B7 VH with H26G, T30H
VL: B7 VL
notes: IgG
binding result [2]: binds

B22: MYT1446 (antibody, V domains shown)
VH: B7 VH with H26G, L102H
VL: B7 VL
notes: IgG
binding result [2]: binds

B23: MYT1440 (antibody, V domains shown)
VH: B7 VH with H26G, G66H
VL: B7 VL
notes: IgG
binding result [2]: binds

B24: MYT1430 (antibody, V domains shown)
VH: B7 VH with H26G, G56H
VL: B7 VL
notes: IgG
binding result [2]: binds

B26: MYT1419 (antibody, V domains shown)
VH: B7 VH with H26G, D31H
VL: B7 VL
notes: IgG
binding result [2]: binds

B27: MYT1417 (antibody, V domains shown)
VH: B7 VH with H26G, F29H
VL: B7 VL
notes: IgG
binding result [1]: no binding (tested: 50 nM)

B28: MYT1448 (antibody, V domains shown)
VH: B7 VH with H26G, A104H
VL: B7 VL
notes: IgG
binding result [2]: binds

B32: MYT1442 (antibody, V domains shown)
VH: B7 VH with H26G, R98H
VL: B7 VL
notes: IgG
binding result [2]: binds

B33: MYT1436 (antibody, V domains shown)
VH: B7 VH with H26G, Q62H
VL: B7 VL
notes: IgG
binding result [2]: binds

B35: MYT1431 (antibody, V domains shown)
VH: B7 VH with H26G, A57H
VL: B7 VL
notes: IgG
binding result [2]: binds

Second part, the binder after the results:

binding result [1]: no binding (tested: 50 nM)
B1: MYT1281 (antibody, V domains shown)
VH: B4 VH with E99H
VL: B4 VL with H95P
notes: IgG

binding result [2]: binds
B2: MYT2799 (antibody, V domains shown)
VH: B4 VH
VL: B4 VL with H95P, T97H
notes: IgG

binding result [2]: binds
B3: MYT2798 (antibody, V domains shown)
VH: B4 VH
VL: B4 VL with H95P, Y96H
notes: IgG

binding result [2]: binds
B9: MYT1434 (antibody, V domains shown)
VH: B7 VH with H26G, Y60H
VL: B7 VL
notes: IgG

binding result [2]: binds
B10: MYT1420 (antibody, V domains shown)
VH: B7 VH with H26G, Y32H
VL: B7 VL
notes: IgG

binding result [2]: binds
B11: MYT1449 (antibody, V domains shown)
VH: B7 VH with H26G, S105H
VL: B7 VL
notes: IgG

binding result [2]: binds
B12: MYT1433 (antibody, V domains shown)
VH: B7 VH with H26G, F59H
VL: B7 VL
notes: IgG

binding result [2]: binds
B13: MYT1438 (antibody, V domains shown)
VH: B7 VH with H26G, F64H
VL: B7 VL
notes: IgG

binding result [2]: binds
B14: MYT1422 (antibody, V domains shown)
VH: B7 VH with H26G, M34H
VL: B7 VL
notes: IgG

binding result [2]: binds
B17: MYT1437 (antibody, V domains shown)
VH: B7 VH with H26G, K63H
VL: B7 VL
notes: IgG

binding result [2]: binds
B18: MYT1423 (antibody, V domains shown)
VH: B7 VH with H26G, K35H
VL: B7 VL
notes: IgG

binding result [2]: binds
B25: MYT1416 (antibody, V domains shown)
VH: B7 VH with H26G, T28H
VL: B7 VL
notes: IgG

binding result [2]: binds
B29: MYT1453 (antibody, V domains shown)
VH: B7 VH with H26G, Y109H
VL: B7 VL
notes: IgG

binding result [2]: binds
B30: MYT1429 (antibody, V domains shown)
VH: B7 VH with H26G, N55H
VL: B7 VL
notes: IgG

binding result [2]: binds
B31: MYT1451 (antibody, V domains shown)
VH: B7 VH with H26G, F107H
VL: B7 VL
notes: IgG

binding result [2]: binds
B34: MYT1421 (antibody, V domains shown)
VH: B7 VH with H26G, Y33H
VL: B7 VL
notes: IgG

binding result [2]: binds
B36: MYT1426 (antibody, V domains shown)
VH: B7 VH with H26G, I52H
VL: B7 VL
notes: IgG

binding result [2]: binds
B37: MYT1435 (antibody, V domains shown)
VH: B7 VH with H26G, N61H
VL: B7 VL
notes: IgG

binding result [2]: binds
B38: MYT1432 (antibody, V domains shown)
VH: B7 VH with H26G, T58H
VL: B7 VL
notes: IgG
